# Measurements: patent US20150203577A1 (Chugai, published 2015)
# Numbering of substitutions follows the chain as printed.
# T1: mouse FcγRIII (mouse, UniProt P08508 31-215)
# T1 construct: also called mFcγRIII; mFcgRIII
# T1 chain: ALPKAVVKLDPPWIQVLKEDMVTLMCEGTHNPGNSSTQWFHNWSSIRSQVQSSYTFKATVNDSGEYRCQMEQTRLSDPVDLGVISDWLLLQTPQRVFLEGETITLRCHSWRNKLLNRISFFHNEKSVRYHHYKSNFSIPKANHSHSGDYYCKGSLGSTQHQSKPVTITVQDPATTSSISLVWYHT
# T2: mouse FcγRII (mouse, UniProt P08101 30-210)
# T2 construct: also called mFcγRII; mFcgRII
# T2 sequence: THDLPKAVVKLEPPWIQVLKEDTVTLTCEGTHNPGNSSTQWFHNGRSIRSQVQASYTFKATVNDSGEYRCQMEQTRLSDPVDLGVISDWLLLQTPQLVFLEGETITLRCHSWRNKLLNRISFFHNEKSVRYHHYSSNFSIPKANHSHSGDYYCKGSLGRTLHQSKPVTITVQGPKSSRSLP
# T3: mouse FcγRIII extracellular domain with C-terminal His tag (mouse, UniProt P08508 31-215)
# T3 construct: Made on the basis of NCBI NP-034318.2; also called mFcγRIII; mFcgRIII
# T3 chain: T1 chain
# T4: mouse FcγRII extracellular domain with C-terminal His tag (mouse, UniProt P08101 30-210)
# T4 construct: Made on the basis of NCBI NP-034317.1; also called mFcγRII; mFcgRII
# T4 sequence: T2 sequence
# B1: MB002 (antibody, mouse IgG1, kappa)
# heavy: QVQLQESGPGLVKPSETLSLTCAVSGHSISHDHAWSWVRQPPGEGLEWIGFISYSGITNYNPSLQGRVTISRDNSKNTLYLQMNSLRAEDTAVYYCARSLARTTAMDYWGEGTLVTVSSAKTTPPSVYPLAPGSAAQTNSMVTLGCLVKGYFPEPVTVTWNSGSLSSGVHTFPAVLQSDLYTLSSSVTVPSSTWPSETVTCNVAHPASSTKVDKKIVPRDCGCKPCICDVPEVSSVFIFPPKPKDVLTITLTPKVTCVVVDISKDDPEVQFSWFVDDVEVHTAQTQPREEQFNSTFRSVSELPIMHQDWLNGKEFKCRVNSAAFPAPIEKTISKTKGRPKAPQVYTIPPPKEQMAKDKVSLTCMITDFFPEDITVEWQWNGQPAENYKNTQPIMDTDGSYFVYSKLNVQKSNWEAGNTFTCSVLHEGLHNHHTEKSLSHSPGK
# light: not shown
# notes: copies: 2 + 2
# B2: MB013 (antibody, mouse IgG1, kappa)
# heavy: B1 heavy with D229Q
# light: not shown
# notes: copies: 2 + 2
# B3: MB019 (antibody, mouse IgG1, kappa)
# heavy: B1 heavy with D229T, V230A
# light: not shown
# notes: copies: 2 + 2
# B4: MB020 (antibody, mouse IgG1, kappa)
# heavy: B1 heavy with D229T, V230D
# light: not shown
# notes: copies: 2 + 2
# B5: H237-MB510/MRAL-k0 (antibody, mouse IgG1, kappa)
# heavy: B1 heavy with D229E, V230N, P231Y, S234E, S235M
# light: not shown
# notes: copies: 2 + 2
# B6: H237-MB482/MRAL-k0 (antibody, mouse IgG1, kappa)
# heavy: B1 heavy with D229E, V230D, P231Y, S234E
# light: not shown
# notes: copies: 2 + 2
# B7: H237-MB517/MRAL-k0 (antibody, mouse IgG1, kappa)
# heavy: B1 heavy with D229E, V230A, P231Y, S234E, S235W
# light: not shown
# notes: copies: 2 + 2
# B8: H237-MB521/MRAL-k0 (antibody, mouse IgG1, kappa)
# heavy: B1 heavy with D229E, P231Y, S234E, S235W
# light: not shown
# notes: copies: 2 + 2
# B9: H237-MB523/MRAL-k0 (antibody, mouse IgG1, kappa)
# heavy: B1 heavy with D229I, V230P, P231A, S234E, S235W
# light: not shown
# notes: copies: 2 + 2
# B10: H237-MB525/MRAL-k0 (antibody, mouse IgG1, kappa)
# heavy: B1 heavy with D229Q, V230P, P231N, S234E, S235W
# light: not shown
# notes: copies: 2 + 2
# B11: H237-MB509/MRAL-k0 (antibody, mouse IgG1, kappa)
# heavy: B1 heavy with D229E, V230D, P231Y, S234E, S235M
# light: not shown
# notes: copies: 2 + 2
# B12: H237-MB470/MRAL-k0 (antibody, mouse IgG1, kappa)
# heavy: B1 heavy with D229E, V230N, P231Y, S234E, S235E
# light: not shown
# notes: copies: 2 + 2
# B13: H237-MB481/MRAL-k0 (antibody, mouse IgG1, kappa)
# heavy: B1 heavy with D229E, V230A, P231Y, S234E
# light: not shown
# notes: copies: 2 + 2
# B14: H237-MB511/MRAL-k0 (antibody, mouse IgG1, kappa)
# heavy: B1 heavy with D229E, V230T, P231Y, S234E, S235M
# light: not shown
# notes: copies: 2 + 2
# B15: MB025 (antibody, mouse IgG1, kappa)
# heavy: B1 heavy with D229T, V230I
# light: not shown
# notes: copies: 2 + 2
# B16: H237-MB487/MRAL-k0 (antibody, mouse IgG1, kappa)
# heavy: B1 heavy with D229I, V230P, P231A, S234E
# light: not shown
# notes: copies: 2 + 2
# B17: H237-MB472/MRAL-k0 (antibody, mouse IgG1, kappa)
# heavy: B1 heavy with D229E, P231Y, S234E, S235E
# light: not shown
# notes: copies: 2 + 2
# How the values were obtained:
# [1] = biological target: T1, mouse FcγRIII; experiment: SPR Biacore 4000, KD ratio
# Experimental: (§1) Each altered antibody was analyzed for its interaction with each Fcγ receptor prepared above using Biacore T100 (GE Healthcare Japan Corp.), Biacore T200 (GE Healthcare Japan Corp.), Biacore A100, or Biacore 4000. The running buffer used was HBS-EP+ (GE Healthcare Japan Corp.). The assay temperature was set to 25° C. The sensor chips used were chips prepared by immobilizing Protein L (ACTIGEN or BioVision) onto Series S Sensor Chip CM5 (GE Healthcare Japan Corp.) or Series S Sensor Chip CM4 (GE Healthcare Japan Corp.) by the amine coupling method.
# (§2) In order to calculate the KD value of each altered antibody for FcγR, kinetic analysis was conducted according to the following method: first, the antibody of interest was captured onto any of these chips and allowed to interact with mFcγR diluted with a running buffer. For the obtained sensorgram, the assay results were globally fit into the 1:1 Langmuir binding model using Biacore Evaluation Software to calculate an association rate constant ka (L/mol/s) and a dissociation rate constant kd (1/s). From these values, the dissociation constant KD (mol/L) was calculated.
# [2] = biological target: T2, mouse FcγRII; experiment: SPR Biacore 4000, KD ratio
# Experimental: as §1, §2
# [3] = biological target: T3, mouse FcγRIII extracellular domain with …; experiment: SPR Biacore T200
# Experimental: as §1, §2
# [4] = biological target: T4, mouse FcγRII extracellular domain with …; experiment: SPR Biacore T200
# Experimental: as §1, §2
Binder,relative mFcγRIII-binding activity (mIgG1 = 1) [1] [fold],relative mFcγRII-binding activity (mIgG1 = 1) [2] [fold],relative mFcγRIII-binding activity (mIgG1 = 1) [3],relative mFcγRII-binding activity (mIgG1 = 1) [4]
B1,1.47,2.72,,
B2,1.07,1.2,,
B3,1.44,2.7,,
B4,2.84,7.97,,
B5,,,0.6,6.5
B6,,,0.7,14.1
B7,,,0.4,1.2
B8,,,0.7,1.6
B9,,,0.1,0.5
B10,,,0.3,2.8
B11,,,0.6,10.7
B12,,,4.9,63.8
B13,,,0.6,8.5
B14,,,0.6,8.3
B15,1.06,1.19,,
B16,,,0.5,6.8
B17,,,2.5,39.4
